{
  "source": "patent US20240261333A1",
  "about": "“NOVEL TARGETS FOR ENHANCING ANTI-TUMOR IMMUNITY” (THE BROAD INSTITUTE, INC., priority 2021, published 2024)",
  "key": {"[1]": {"molecular_target": "EIF4G1 (UniProt Q04637)", "test": "co-IP, anti-FLAG, C-FLAG B3GNT2 cell lysate, mass spectrometry"}, "[2]": {"molecular_target": "HIST1H1E (UniProt P10412)", "test": "co-IP, anti-FLAG, C-FLAG B3GNT2 cell lysate, mass spectrometry"}, "[3]": {"molecular_target": "ITGB3 (UniProt P05106)", "sequence (P05106 27-788 limits assumed)": "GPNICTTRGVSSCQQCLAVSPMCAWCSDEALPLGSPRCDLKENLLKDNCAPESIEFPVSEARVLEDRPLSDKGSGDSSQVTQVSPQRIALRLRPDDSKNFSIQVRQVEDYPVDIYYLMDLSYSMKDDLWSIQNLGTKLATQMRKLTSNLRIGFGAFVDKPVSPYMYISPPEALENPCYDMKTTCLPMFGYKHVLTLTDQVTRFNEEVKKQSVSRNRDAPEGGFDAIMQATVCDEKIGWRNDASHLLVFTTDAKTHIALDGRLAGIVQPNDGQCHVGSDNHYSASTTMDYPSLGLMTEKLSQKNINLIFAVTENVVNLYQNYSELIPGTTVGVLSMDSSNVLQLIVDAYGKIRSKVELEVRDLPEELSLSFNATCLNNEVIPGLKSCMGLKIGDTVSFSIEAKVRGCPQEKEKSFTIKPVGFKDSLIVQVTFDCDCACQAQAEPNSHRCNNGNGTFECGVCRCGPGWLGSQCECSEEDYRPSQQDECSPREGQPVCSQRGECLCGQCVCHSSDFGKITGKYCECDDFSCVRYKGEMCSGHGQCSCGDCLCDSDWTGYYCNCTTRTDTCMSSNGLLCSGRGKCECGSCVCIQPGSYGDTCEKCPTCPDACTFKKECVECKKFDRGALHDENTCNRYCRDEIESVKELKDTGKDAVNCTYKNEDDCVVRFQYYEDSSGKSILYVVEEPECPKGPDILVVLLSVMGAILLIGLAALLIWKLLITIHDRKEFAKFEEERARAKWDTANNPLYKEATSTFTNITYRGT", "test": "co-IP, anti-FLAG, C-FLAG B3GNT2 cell lysate, mass spectrometry"}, "[4]": {"molecular_target": "LIMA1 (UniProt Q9UHB6)", "sequence (Q9UHB6 other isoform, or with tags, fused parts or gaps limits assumed)": "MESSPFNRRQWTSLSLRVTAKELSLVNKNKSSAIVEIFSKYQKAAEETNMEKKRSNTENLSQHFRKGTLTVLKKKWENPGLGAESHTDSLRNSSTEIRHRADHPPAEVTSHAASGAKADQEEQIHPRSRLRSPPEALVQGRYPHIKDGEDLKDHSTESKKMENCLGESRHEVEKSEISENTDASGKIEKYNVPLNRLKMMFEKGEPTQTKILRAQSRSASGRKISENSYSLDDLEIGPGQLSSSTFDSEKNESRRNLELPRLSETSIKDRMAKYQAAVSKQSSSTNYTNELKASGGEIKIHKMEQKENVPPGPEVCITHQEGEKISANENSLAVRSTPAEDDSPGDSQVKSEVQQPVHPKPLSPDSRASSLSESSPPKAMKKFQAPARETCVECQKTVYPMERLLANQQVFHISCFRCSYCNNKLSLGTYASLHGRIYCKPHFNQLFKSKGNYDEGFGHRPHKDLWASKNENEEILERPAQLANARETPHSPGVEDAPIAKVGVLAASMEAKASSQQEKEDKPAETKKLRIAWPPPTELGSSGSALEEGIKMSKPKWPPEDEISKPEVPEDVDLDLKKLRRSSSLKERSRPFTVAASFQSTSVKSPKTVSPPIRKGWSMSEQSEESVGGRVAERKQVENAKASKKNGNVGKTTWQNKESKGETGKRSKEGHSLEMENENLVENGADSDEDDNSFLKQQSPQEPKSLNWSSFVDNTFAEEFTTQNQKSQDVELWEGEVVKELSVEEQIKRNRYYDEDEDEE", "test": "co-IP, anti-FLAG, C-FLAG B3GNT2 cell lysate, mass spectrometry"}, "[5]": {"molecular_target": "MTCH2 (UniProt Q9Y6C9)", "test": "co-IP, anti-FLAG, C-FLAG B3GNT2 cell lysate, mass spectrometry"}, "[6]": {"molecular_target": "MTDH (UniProt Q86UE4)", "test": "co-IP, anti-FLAG, C-FLAG B3GNT2 cell lysate, mass spectrometry"}, "[7]": {"molecular_target": "NCCRP1 (UniProt Q6ZVX7)", "test": "co-IP, anti-FLAG, C-FLAG B3GNT2 cell lysate, mass spectrometry"}, "[8]": {"molecular_target": "PBXIP1 (UniProt Q96AQ6)", "sequence (Q96AQ6 30-731 limits assumed)": "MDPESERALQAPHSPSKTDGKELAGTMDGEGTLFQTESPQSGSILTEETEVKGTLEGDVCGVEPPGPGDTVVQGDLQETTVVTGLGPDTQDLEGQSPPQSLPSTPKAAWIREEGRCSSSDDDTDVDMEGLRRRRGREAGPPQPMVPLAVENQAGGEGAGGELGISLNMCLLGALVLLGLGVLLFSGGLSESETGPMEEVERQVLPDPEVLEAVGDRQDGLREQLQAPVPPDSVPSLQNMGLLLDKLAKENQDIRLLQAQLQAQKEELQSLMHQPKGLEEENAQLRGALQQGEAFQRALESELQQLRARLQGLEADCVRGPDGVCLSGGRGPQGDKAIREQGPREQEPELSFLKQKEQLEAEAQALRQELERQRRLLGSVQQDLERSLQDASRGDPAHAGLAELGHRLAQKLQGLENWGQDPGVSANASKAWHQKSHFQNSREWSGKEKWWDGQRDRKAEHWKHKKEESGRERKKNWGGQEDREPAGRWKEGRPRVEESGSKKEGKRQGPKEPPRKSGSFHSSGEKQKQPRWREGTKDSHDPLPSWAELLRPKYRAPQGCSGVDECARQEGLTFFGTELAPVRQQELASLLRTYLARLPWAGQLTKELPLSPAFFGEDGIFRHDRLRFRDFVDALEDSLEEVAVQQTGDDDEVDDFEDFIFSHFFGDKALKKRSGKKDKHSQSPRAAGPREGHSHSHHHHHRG", "test": "co-IP, anti-FLAG, C-FLAG B3GNT2 cell lysate, mass spectrometry"}, "[9]": {"molecular_target": "RPL22 (UniProt P35268)", "test": "co-IP, anti-FLAG, C-FLAG B3GNT2 cell lysate, mass spectrometry"}, "[10]": {"molecular_target": "RPL35 (UniProt P42766)", "test": "co-IP, anti-FLAG, C-FLAG B3GNT2 cell lysate, mass spectrometry"}, "[11]": {"molecular_target": "RPL37A (UniProt P61513)", "test": "co-IP, anti-FLAG, C-FLAG B3GNT2 cell lysate, mass spectrometry"}, "[12]": {"molecular_target": "RPL5 (UniProt P46777)", "test": "co-IP, anti-FLAG, C-FLAG B3GNT2 cell lysate, mass spectrometry"}, "[13]": {"molecular_target": "RPS19 (UniProt P39019)", "test": "co-IP, anti-FLAG, C-FLAG B3GNT2 cell lysate, mass spectrometry"}, "[14]": {"molecular_target": "RPS8 (UniProt P62241)", "test": "co-IP, anti-FLAG, C-FLAG B3GNT2 cell lysate, mass spectrometry"}, "[15]": {"molecular_target": "SRSF1 (UniProt Q07955)", "sequence (Q07955 2-248 limits assumed)": "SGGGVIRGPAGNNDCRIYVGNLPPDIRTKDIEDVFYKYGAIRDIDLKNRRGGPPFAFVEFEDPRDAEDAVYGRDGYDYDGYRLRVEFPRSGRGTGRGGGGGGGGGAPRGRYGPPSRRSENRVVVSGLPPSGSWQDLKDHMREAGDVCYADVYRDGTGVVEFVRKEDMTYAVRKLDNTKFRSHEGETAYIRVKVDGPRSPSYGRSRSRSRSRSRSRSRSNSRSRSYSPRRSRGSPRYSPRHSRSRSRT", "test": "co-IP, anti-FLAG, C-FLAG B3GNT2 cell lysate, mass spectrometry"}, "[16]": {"molecular_target": "SRSF3 (UniProt P84103)", "test": "co-IP, anti-FLAG, C-FLAG B3GNT2 cell lysate, mass spectrometry"}, "[17]": {"molecular_target": "SSRP1 (UniProt Q08945)", "sequence (Q08945 2-709 limits assumed)": "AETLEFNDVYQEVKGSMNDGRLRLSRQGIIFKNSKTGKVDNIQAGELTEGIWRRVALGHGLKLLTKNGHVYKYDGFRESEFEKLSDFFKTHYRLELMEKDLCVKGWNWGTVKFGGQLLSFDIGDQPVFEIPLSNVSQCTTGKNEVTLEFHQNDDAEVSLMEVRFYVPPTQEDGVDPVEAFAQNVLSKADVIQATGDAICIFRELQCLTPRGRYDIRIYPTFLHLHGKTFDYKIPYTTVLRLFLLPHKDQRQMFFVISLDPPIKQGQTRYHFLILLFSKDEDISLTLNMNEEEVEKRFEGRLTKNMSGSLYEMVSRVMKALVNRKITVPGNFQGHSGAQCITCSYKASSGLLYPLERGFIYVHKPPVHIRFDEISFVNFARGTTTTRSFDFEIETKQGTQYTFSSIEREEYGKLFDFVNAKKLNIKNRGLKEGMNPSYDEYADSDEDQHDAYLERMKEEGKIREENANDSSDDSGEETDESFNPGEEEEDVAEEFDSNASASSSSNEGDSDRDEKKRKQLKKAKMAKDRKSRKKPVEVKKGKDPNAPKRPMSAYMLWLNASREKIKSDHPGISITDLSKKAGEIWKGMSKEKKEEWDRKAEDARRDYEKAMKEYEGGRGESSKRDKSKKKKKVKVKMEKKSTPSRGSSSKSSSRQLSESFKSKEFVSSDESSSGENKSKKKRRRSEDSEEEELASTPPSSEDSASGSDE", "test": "co-IP, anti-FLAG, C-FLAG B3GNT2 cell lysate, mass spectrometry"}, "[18]": {"molecular_target": "TAGLN (UniProt Q01995)", "test": "co-IP, anti-FLAG, C-FLAG B3GNT2 cell lysate, mass spectrometry"}, "[19]": {"molecular_target": "TNKS1BP1 (UniProt Q9C0C2)", "test": "co-IP, anti-FLAG, C-FLAG B3GNT2 cell lysate, mass spectrometry"}, "[20]": {"molecular_target": "CALML5 (human) (UniProt Q9NZT1)", "test": "control IP with IgG, lysate of cells with C-FLAG B3GNT2, mass spectrometry"}, "[21]": {"molecular_target": "DDX1 (human) (UniProt Q92499)", "sequence (Q92499 whole entry)": "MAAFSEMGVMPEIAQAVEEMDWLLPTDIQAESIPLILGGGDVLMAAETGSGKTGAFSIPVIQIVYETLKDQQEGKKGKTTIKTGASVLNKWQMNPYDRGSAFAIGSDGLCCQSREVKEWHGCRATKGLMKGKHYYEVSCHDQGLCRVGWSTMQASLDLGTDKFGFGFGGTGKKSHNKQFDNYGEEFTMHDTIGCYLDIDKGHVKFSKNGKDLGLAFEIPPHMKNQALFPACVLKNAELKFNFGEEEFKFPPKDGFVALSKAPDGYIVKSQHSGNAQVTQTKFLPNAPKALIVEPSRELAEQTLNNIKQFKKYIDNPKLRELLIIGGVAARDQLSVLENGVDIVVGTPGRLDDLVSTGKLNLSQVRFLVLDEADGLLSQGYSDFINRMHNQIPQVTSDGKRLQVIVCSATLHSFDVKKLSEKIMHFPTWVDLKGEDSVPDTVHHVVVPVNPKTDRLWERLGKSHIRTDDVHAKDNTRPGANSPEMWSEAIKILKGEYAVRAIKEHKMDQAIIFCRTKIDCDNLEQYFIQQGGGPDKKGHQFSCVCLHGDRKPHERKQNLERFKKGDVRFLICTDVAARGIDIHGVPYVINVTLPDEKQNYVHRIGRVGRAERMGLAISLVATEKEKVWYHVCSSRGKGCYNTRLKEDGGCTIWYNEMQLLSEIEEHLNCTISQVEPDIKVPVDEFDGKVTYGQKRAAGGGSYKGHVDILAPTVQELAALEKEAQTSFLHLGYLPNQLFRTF", "test": "control IP with IgG, lysate of cells with C-FLAG B3GNT2, mass spectrometry"}, "[22]": {"molecular_target": "DHX9 (human) (UniProt Q08211)", "test": "control IP with IgG, lysate of cells with C-FLAG B3GNT2, mass spectrometry"}, "[23]": {"molecular_target": "EIF3A (human) (UniProt Q14152)", "test": "control IP with IgG, lysate of cells with C-FLAG B3GNT2, mass spectrometry"}, "[24]": {"molecular_target": "GBF1 (human) (UniProt Q92538)", "test": "control IP with IgG, lysate of cells with C-FLAG B3GNT2, mass spectrometry"}, "[25]": {"molecular_target": "IL13RA2 (human) (UniProt Q14627)", "sequence (Q14627 27-380 limits assumed)": "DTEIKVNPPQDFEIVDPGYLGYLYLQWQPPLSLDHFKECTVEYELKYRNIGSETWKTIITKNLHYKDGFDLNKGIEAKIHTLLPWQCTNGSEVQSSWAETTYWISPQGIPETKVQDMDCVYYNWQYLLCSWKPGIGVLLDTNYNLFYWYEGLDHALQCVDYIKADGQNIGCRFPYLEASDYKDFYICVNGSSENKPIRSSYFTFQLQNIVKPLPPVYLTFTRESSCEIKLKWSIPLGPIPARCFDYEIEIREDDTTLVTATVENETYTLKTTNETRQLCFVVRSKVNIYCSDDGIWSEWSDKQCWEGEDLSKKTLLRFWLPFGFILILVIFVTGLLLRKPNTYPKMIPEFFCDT", "test": "control IP with IgG, lysate of cells with C-FLAG B3GNT2, mass spectrometry"}, "[26]": {"molecular_target": "LCN1 (human) (UniProt P31025)", "test": "control IP with IgG, lysate of cells with C-FLAG B3GNT2, mass spectrometry"}, "[27]": {"molecular_target": "RPL23 (human) (UniProt P62829)", "test": "control IP with IgG, lysate of cells with C-FLAG B3GNT2, mass spectrometry"}, "[28]": {"molecular_target": "RPL8 (human) (UniProt P62917)", "test": "control IP with IgG, lysate of cells with C-FLAG B3GNT2, mass spectrometry"}, "[29]": {"molecular_target": "SYNM (human) (UniProt O15061)", "test": "control IP with IgG, lysate of cells with C-FLAG B3GNT2, mass spectrometry"}, "[30]": {"molecular_target": "SYNPO (human) (UniProt Q8N3V7)", "test": "control IP with IgG, lysate of cells with C-FLAG B3GNT2, mass spectrometry"}, "[31]": {"molecular_target": "TBL2 (human) (UniProt Q9Y4P3)", "sequence (Q9Y4P3 whole entry)": "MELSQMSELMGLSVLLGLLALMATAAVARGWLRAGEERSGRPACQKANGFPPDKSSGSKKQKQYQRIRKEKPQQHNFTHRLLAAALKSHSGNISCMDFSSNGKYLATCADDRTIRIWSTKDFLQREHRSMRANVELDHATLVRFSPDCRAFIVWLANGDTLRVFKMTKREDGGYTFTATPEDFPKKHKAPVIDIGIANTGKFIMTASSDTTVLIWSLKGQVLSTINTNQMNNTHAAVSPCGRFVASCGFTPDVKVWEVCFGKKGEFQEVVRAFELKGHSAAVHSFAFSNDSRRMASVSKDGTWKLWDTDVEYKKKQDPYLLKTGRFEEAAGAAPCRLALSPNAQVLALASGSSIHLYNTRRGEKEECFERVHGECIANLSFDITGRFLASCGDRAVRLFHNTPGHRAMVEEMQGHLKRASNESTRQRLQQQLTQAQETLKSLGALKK", "test": "control IP with IgG, lysate of cells with C-FLAG B3GNT2, mass spectrometry"}, "[32]": {"molecular_target": "TPM3 (human) (UniProt P06753)", "sequence (P06753 other isoform, or with tags, fused parts or gaps limits assumed)": "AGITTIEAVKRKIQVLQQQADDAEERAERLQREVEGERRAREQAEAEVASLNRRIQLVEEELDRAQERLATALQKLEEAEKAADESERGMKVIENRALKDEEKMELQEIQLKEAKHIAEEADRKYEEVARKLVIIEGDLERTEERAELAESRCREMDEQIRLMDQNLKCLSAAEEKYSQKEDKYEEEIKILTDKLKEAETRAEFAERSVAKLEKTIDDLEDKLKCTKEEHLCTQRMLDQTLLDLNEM", "test": "control IP with IgG, lysate of cells with C-FLAG B3GNT2, mass spectrometry"}, "[33]": {"molecular_target": "T1, YTHDF2 (human) (UniProt Q9Y5A9)", "T1 sequence (looked up)": "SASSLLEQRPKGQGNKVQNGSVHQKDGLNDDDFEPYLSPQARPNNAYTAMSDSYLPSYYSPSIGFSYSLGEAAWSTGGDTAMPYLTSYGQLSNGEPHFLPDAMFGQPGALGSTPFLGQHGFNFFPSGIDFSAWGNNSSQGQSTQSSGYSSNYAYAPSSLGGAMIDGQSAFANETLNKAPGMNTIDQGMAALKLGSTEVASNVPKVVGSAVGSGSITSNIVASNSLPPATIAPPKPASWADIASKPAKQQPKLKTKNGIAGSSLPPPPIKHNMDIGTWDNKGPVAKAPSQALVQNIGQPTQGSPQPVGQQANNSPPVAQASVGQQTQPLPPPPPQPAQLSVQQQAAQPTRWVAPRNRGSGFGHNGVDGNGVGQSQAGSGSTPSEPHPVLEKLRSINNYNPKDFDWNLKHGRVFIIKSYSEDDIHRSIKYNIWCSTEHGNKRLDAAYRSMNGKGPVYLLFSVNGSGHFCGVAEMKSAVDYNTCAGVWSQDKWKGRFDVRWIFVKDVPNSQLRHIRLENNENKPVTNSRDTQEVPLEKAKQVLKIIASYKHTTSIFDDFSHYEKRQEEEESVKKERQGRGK", "test": "control IP with IgG, lysate of cells with C-FLAG B3GNT2, mass spectrometry"}},
  "data": [
    {"substance": "C-terminal FLAG tagged B3GNT2 (from UniProt Q9NY97 1-397) (enzyme)", "values": [
      {"measurement": "co-IP mass spectrometry count", "setting": "[1]", "value": 6},
      {"measurement": "co-IP mass spectrometry count", "setting": "[2]", "value": 6},
      {"measurement": "co-IP mass spectrometry count", "setting": "[3]", "value": 3},
      {"measurement": "co-IP mass spectrometry count", "setting": "[4]", "value": 2},
      {"measurement": "co-IP mass spectrometry count", "setting": "[5]", "value": 2},
      {"measurement": "co-IP mass spectrometry count", "setting": "[6]", "value": 6},
      {"measurement": "co-IP mass spectrometry count", "setting": "[7]", "value": 4},
      {"measurement": "co-IP mass spectrometry count", "setting": "[8]", "value": 4},
      {"measurement": "co-IP mass spectrometry count", "setting": "[9]", "value": 5},
      {"measurement": "co-IP mass spectrometry count", "setting": "[10]", "value": 5},
      {"measurement": "co-IP mass spectrometry count", "setting": "[11]", "value": 7},
      {"measurement": "co-IP mass spectrometry count", "setting": "[12]", "value": 6},
      {"measurement": "co-IP mass spectrometry count", "setting": "[13]", "value": 10},
      {"measurement": "co-IP mass spectrometry count", "setting": "[14]", "value": 17},
      {"measurement": "co-IP mass spectrometry count", "setting": "[15]", "value": 9},
      {"measurement": "co-IP mass spectrometry count", "setting": "[16]", "value": 7},
      {"measurement": "co-IP mass spectrometry count", "setting": "[17]", "value": 6},
      {"measurement": "co-IP mass spectrometry count", "setting": "[18]", "value": 3},
      {"measurement": "co-IP mass spectrometry count", "setting": "[19]", "value": 8}
    ]},
    {"substance": "IgG control (Millipore Sigma 12-371) (antibody)", "values": [
      {"measurement": "co-IP mass spectrometry count", "setting": "[20]", "value": 0},
      {"measurement": "co-IP mass spectrometry count", "setting": "[21]", "value": 5},
      {"measurement": "co-IP mass spectrometry count", "setting": "[22]", "value": 0},
      {"measurement": "co-IP mass spectrometry count", "setting": "[23]", "value": 0},
      {"measurement": "co-IP mass spectrometry count", "setting": "[24]", "value": 0},
      {"measurement": "co-IP mass spectrometry count", "setting": "[25]", "value": 0},
      {"measurement": "co-IP mass spectrometry count", "setting": "[26]", "value": 6},
      {"measurement": "co-IP mass spectrometry count", "setting": "[27]", "value": 4},
      {"measurement": "co-IP mass spectrometry count", "setting": "[28]", "value": 3},
      {"measurement": "co-IP mass spectrometry count", "setting": "[29]", "value": 2},
      {"measurement": "co-IP mass spectrometry count", "setting": "[30]", "value": 4},
      {"measurement": "co-IP mass spectrometry count", "setting": "[31]", "value": 0},
      {"measurement": "co-IP mass spectrometry count", "setting": "[32]", "value": 2},
      {"measurement": "co-IP mass spectrometry count", "setting": "[33]", "value": 2}
    ]}
  ]
}
